Our source for the protein stability index values is the supplement of paper PMC10567573.

To fix the notation:
B1: ADAMTS4 (parent)
chain: HVDPEEPWSPCSARFITDFLDNGY
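Further: lentivirally expressed fusions sorted by FACS into six bins by GFP to DsRed ratio, PSI derived from sequencing read proportions per bin multiplied by bin number.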

This data set covers variants of B1. Kind of data set: protein stability index of a GFP-peptide fusion (GPS, HEK-293T) (PSI 1-6); higher = more stable. The following applies: c terminus: a fixed tail appended.
Turning to HVDPEEKWSPCSARFITDFLDNGY [P7K], the protein stability index came to 1.89.
For HVDPEELWSPCSARFITDFLDNGY [P7L], the protein stability index worked out at 3.65.
For the variant HVDPEEVWSPCSARFITDFLDNGY [P7V], the protein stability index is 2.56.
Under HVDPEEFWSPCSARFITDFLDNGY [P7F] stands 2.85; under HVDPEEPWSPVSARFITDFLDNGY [C11V], 1.82.
Turning to HVDPEEPWSPQSARFITDFLDNGY [C11Q], the protein stability index was 2.18.
Turning to HVDPEEPWSPPSARFITDFLDNGY [C11P], the protein stability index was determined as 2.
With HVDPEEPWSPKSARFITDFLDNGY [C11K], the protein stability index worked out at 2.21.
Take HVDPEEPWSPRSARFITDFLDNGY [C11R]: the protein stability index was determined as 1.7.
Consider HVDPEEPLSPCSARFITDFLDNGY [W8L], for which the protein stability index was 3.24.
Consider HVDPEEPWSPCSARYITDFLDNGY [F15Y], for which the protein stability index was found to be 2.01.
Take HVDPEEPWSPCSARCITDFLDNGY [F15C]: the protein stability index turned out to be 1.97.
In the case of HVDPEEPWSPCSAREITDFLDNGY [F15E], the protein stability index came out at 2.65.
Under HVDPEEPWFPCSARFITDFLDNGY [S9F] stands 1.93; under HVDPEEPWAPCSARFITDFLDNGY [S9A], 2.05.
For the variant HVDPEEPWMPCSARFITDFLDNGY [S9M], the protein stability index is 1.77.
Under HVDPEEPWNPCSARFITDFLDNGY [S9N] stands 1.67.
As for HVDPEEPWTPCSARFITDFLDNGY [S9T], the protein stability index is 1.79.
For HVDPEEPWSPCSARFITQFLDNGY [D18Q], the protein stability index worked out at 1.67.
As for HVDPEEPWSPCSARFITFFLDNGY [D18F], the protein stability index is 1.6.
Take HVDPEEPWSPCSARFITGFLDNGY [D18G]: the protein stability index was 1.59.
In the case of HVDPEEPWSPCSARFITWFLDNGY [D18W], the protein stability index stood at 1.53.
Take HVDPEEPWSPCSARFITAFLDNGY [D18A]: the protein stability index amounted to 2.2.
Under HVDPEMPWSPCSARFITDFLDNGY [E6M] stands 2.59; under HVDPEDPWSPCSARFITDFLDNGY [E6D], 1.76; under HVDPEVPWSPCSARFITDFLDNGY [E6V], 1.79.
For HVDPEAPWSPCSARFITDFLDNGY [E6A], the protein stability index was 1.85.
With HVDPEEPWSPCSAKFITDFLDNGY [R14K], the protein stability index stood at 2.32.
For the variant HVDPEEPWSPCSACFITDFLDNGY [R14C], the protein stability index came out at 1.66.
For the variant HVDPEEPWSPCSAPFITDFLDNGY [R14P], the protein stability index was 1.87.
For the variant HVDPEEPWSPCSAWFITDFLDNGY [R14W], the protein stability index was found to be 1.58.
Regarding HVDPEEPWSPCSARFITDFLDNLY [G23L], the protein stability index is 1.82.
Under HVDPEEPWSPCSARFITDFLDNFY [G23F] stands 2.
Under HVDPEEPWSPCSARFITDFLDNSY [G23S] stands 1.71; under TVDPEEPWSPCSARFITDFLDNGY [H1T], 2.77.
Take QVDPEEPWSPCSARFITDFLDNGY [H1Q]: the protein stability index is 2.31.
As for MVDPEEPWSPCSARFITDFLDNGY [H1M], the protein stability index came to 1.95.
For the variant PVDPEEPWSPCSARFITDFLDNGY [H1P], the protein stability index is 2.57.
In the case of HVDPEEPWSPCSARFTTDFLDNGY [I16T], the protein stability index came out at 1.74.
Under HVDPEEPWSPCSARFCTDFLDNGY [I16C] stands 1.59; under HVDPEEPWSPCSARFYTDFLDNGY [I16Y], 1.89.
With HVDPEEPWSPCSARFKTDFLDNGY [I16K], the protein stability index came out at 1.73.
Consider HVDPEEPWSPCSARFITDFLDQGY [N22Q], for which the protein stability index is 2.09.
HVDPEEPWSPCSARFITDFLDCGY [N22C]: the protein stability index amounted to 2.35.
Take HVDPEEPWSPCSARFITDFLDFGY [N22F]: the protein stability index turned out to be 1.85.
Regarding HVDPEEPWSPCSARFITDFLDWGY [N22W], the protein stability index turned out to be 1.3.
For HVDPEEPWSPCSARFITDFLDLGY [N22L], the protein stability index amounted to 1.71.
For the variant HVDPEEPWSPCSARFITDFLLNGY [D21L], the protein stability index worked out at 1.6.
Regarding HVDPEEPWSPCSARFITDFLCNGY [D21C], the protein stability index stood at 1.95.
In the case of HVDPEEPWSPCSARFITDFLHNGY [D21H], the protein stability index turned out to be 1.43.
On to HVDPEEPWSPCSARFITDFLVNGY [D21V], for which the protein stability index came to 2.2.
For HVDPEEPWSPCSARFITDFLRNGY [D21R], the protein stability index turned out to be 1.87.
As to HMDPEEPWSPCSARFITDFLDNGY [V2M], the protein stability index was 2.75.
For the variant HLDPEEPWSPCSARFITDFLDNGY [V2L], the protein stability index was found to be 2.23.
HWDPEEPWSPCSARFITDFLDNGY [V2W]: the protein stability index worked out at 2.08.
Regarding HVDPEEPWSPCSPRFITDFLDNGY [A13P], the protein stability index is 1.89.
Consider HVDPEEPWSPCSARFITDFLDNGC [Y24C], for which the protein stability index was found to be 1.39.
As for HVDPEEPWSPCSARFITDFLDNGP [Y24P], the protein stability index worked out at 1.92.
For the variant HVDPEEPWSPCSARFITDFLDNGQ [Y24Q], the protein stability index was found to be 2.1.
For the variant HVDPEEPWSPCSARFITDFLDNGM [Y24M], the protein stability index came out at 2.07.
As for HVDPEEPWSPCSARFITDFLDNGT [Y24T], the protein stability index is 2.
For HVDPEEPWSPCSARFITDFLDNGV [Y24V], the protein stability index worked out at 1.73.
For HVDPEEPWSPCSARFITDFLDNGA [Y24A], the protein stability index is 2.32.
As to HVDPEEPWSICSARFITDFLDNGY [P10I], the protein stability index is 2.1.
Under HVDPEEPWSSCSARFITDFLDNGY [P10S] stands 2.49.
Turning to HVDPEEPWSLCSARFITDFLDNGY [P10L], the protein stability index was 1.72.
In the case of HVDPEEPWSPCSARFITDFKDNGY [L20K], the protein stability index worked out at 1.93.
In the case of HVDPEEPWSPCSARFITDFHDNGY [L20H], the protein stability index was 1.92.
On to HVDPEEPWSPCSARFITDFYDNGY [L20Y], for which the protein stability index is 2.14.
Take HVDPEEPWSPCSARFITDFQDNGY [L20Q]: the protein stability index is 2.28.
Under HVDPEEPWSPCSARFITDFSDNGY [L20S] stands 1.82.
Under HVDGEEPWSPCSARFITDFLDNGY [P4G] stands 2.9; under HVDMEEPWSPCSARFITDFLDNGY [P4M], 1.77.
On to HVDTEEPWSPCSARFITDFLDNGY [P4T], for which the protein stability index is 1.8.
As for HVDSEEPWSPCSARFITDFLDNGY [P4S], the protein stability index was 1.9.
Take HVDPEEPWSPCDARFITDFLDNGY [S12D]: the protein stability index came to 2.39.
Under HVDPEEPWSPCNARFITDFLDNGY [S12N] stands 2.05.
As to HVDPEEPWSPCWARFITDFLDNGY [S12W], the protein stability index came to 1.67.
HVDPEEPWSPCTARFITDFLDNGY [S12T]: the protein stability index was determined as 1.47.
For the variant HVDPEEPWSPCVARFITDFLDNGY [S12V], the protein stability index was 2.01.
For HVDPEEPWSPCSARFILDFLDNGY [T17L], the protein stability index came out at 2.39.
HVDPEEPWSPCSARFIADFLDNGY [T17A]: the protein stability index came out at 1.87.
Regarding HVDPEEPWSPCSARFISDFLDNGY [T17S], the protein stability index was found to be 1.88.
For the variant HVDPEEPWSPCSARFIEDFLDNGY [T17E], the protein stability index is 1.57.
With HVDPEEPWSPCSARFITDWLDNGY [F19W], the protein stability index is 1.93.
Consider HVDPEEPWSPCSARFITDILDNGY [F19I], for which the protein stability index amounted to 1.8.
For the variant HVDPEEPWSPCSARFITDCLDNGY [F19C], the protein stability index stood at 1.5.
Under HVWPEEPWSPCSARFITDFLDNGY [D3W] stands 1.34; under HVTPEEPWSPCSARFITDFLDNGY [D3T], 2.04.
For the variant HVCPEEPWSPCSARFITDFLDNGY [D3C], the protein stability index came to 2.63.
Consider HVDPMEPWSPCSARFITDFLDNGY [E5M], for which the protein stability index worked out at 2.17.
Under HVDPTEPWSPCSARFITDFLDNGY [E5T] stands 2.96; under HVDPLEPWSPCSARFITDFLDNGY [E5L], 2.31.
As for HVDPCEPWSPCSARFITDFLDNGY [E5C], the protein stability index turned out to be 2.19.
